For this series, the system named is Dextran Sodium Sulphate (DSS)-induced colitis. Briefly: 10-Day Dextran Sodium Sulphate (DSS)-induced colitis model in the mouse. The format is in vivo, Male C57BL/6 mice. Further details: key to Disease Activity Index (DAI): clinical DAI score, daily maximum 12. Conditions: for Disease Activity Index (DAI): mean ± SEM, n=10; for additional DAI score without the change in body weight (only stool consistency and rectal bleeding): oral, 10-day treatment; for additional DAI score without the change in body weight (only stool consistency and rectal bleeding) / inhibition of the disease activity index (DAI): vs. vehicle. The text has this:
10-Day Dextran Sodium Sulphate (DSS)-Induced Colitis Model in the Mouse
The aim of the following study was to determine the anti-inflammatory activity of human beta defensin 2 in an acute (10-days) model of inflammatory bowel disease (colitis) induced by oral dextran sodium sulphate (DSS) administration in the mouse.
Study design: animals were divided into 5 experimental groups. Each group consisted of 10 males: Group A: Treated with Control vehicle (PBS) p.o. twice daily. Group B: Treated with methylprednisolone (1 mg/kg p.o. twice daily). Group C: Treated with hBD2 (0.05 mg/kg p.o. twice daily). Group D: Treated with hBD2 (0.5 mg/kg p.o. […]). Group E: Treated with hBD2 (5 mg/kg p.o. […]). Animal allocation to all experimental groups was done in a randomized manner. A maximum of 5 mice were housed in each cage (as per Directive 86/609/EEC). All animals were weighed on their arrival at the laboratory and prior to the administration of the test items.
The control vehicle and hBD2 were administered orally with the use of a sterile cannula in a dosing volume of 10 ml/kg body weith. The animals of all groups recieved 2 doses daily (at 9.00 h and 17.00 h) of the corresponding test item (test, reference or vehicle) for 10 consecutive days (experimental days 1-10).
Colitis was induced in mice by supplementing their drinking water with DSS 2% for 7 days. On Day 1 all mice were weighed and marked according to their experimental groups. The drinking bottle of each cage was filled with the DSS solution, making sure all bottle lids were mounted properly and that none were congested. On Day 3 any remaining solution in the bottles was emptied and refilled with fresh DSS solution. This procedure was repeated again on Day 5. On Day 8 any remaining solution was discarded and replaced with autoclaved water. Animals were sacrificed 2 days later on Day 10.
Daily clinical assessment of DSS-treated animals was carried out, with the calculation of a validated clinical Disease Activity Index (DAI) ranging from 0 to 4 according to the following parameters: stool consistency, presence or absence of rectal bleeding and weight loss:
Bodyweight loss was calculated as the percent difference between the original bodyweight (Day 1) and the actual bodyweight on each experimental day (2-10). The appearance of diarrhoea is defined as mucus/faecal material adherent to anal fur. Rectal bleeding is defined as diarrhoea containing visible blood/mucus or gross rectal bleeding. The maximum score of the DAI each day is 12.
On day 10, two hours after the last administration of control vehicle, hBD2 or prednisolone, the animals were killed by an overdose of anaesthetic. Their colons were removed and their length and weight measured after exclusion of the caecum. Two sections (proximal and distal) of colon were taken from each animal and preserved in neutral buffered formalin for subsequent histological analysis (haematoxylin and eosin staining) according to the following scoring system:
Description Score: No changes observed (0). Minimal scattered mucosal inflammatory cell infiltrates, with or without minimal epithelial hyperplasia (1). Mild scattered to diffuse inflammatory cell infiltrates, sometimes extending into the submucosa and associated with erosions, with minimal to mild epithelial hyperplasia and minimal to mild mucin depletion from goblet cells (2). Mild to moderate inflammatory cell infiltrates that were sometimes transmural, often associated with ulceration, with moderate epithelial hyperplasia and mucin depletion (3). Marked inflammatory cell infiltrates that were often transmural and associated with ulceration, with marked epithelial hyperplasia and mucin depletion (4). Marked transmural inflammation with severe ulceration and loss of intestinal glands (5). […]

Where [1] appears, read: prednisolone 1 mg/kg p.o. twice daily (Group B), day 10.

Results on two compounds are retold here after patent US20130172235A1, “ORAL TREATMENT OF INFLAMMATORY BOWEL DISEASE” (Novozymes A/S, priority 2011, published 2013).

Ends that are not written are not given here.

In the case of `C[C@H]1C[C@@H]2[C@H]([C@@H](O)C[C@@]3(C)[C@H]2CC[C@]3(O)C(=O)COC(=O)CCC(=O)O)[C@@]2(C)C=CC(=O)C=C12` [Methylprednisolone 21-hemisuccinate, reference compound], the “additional DAI score without the change in body weight (only stool consistency and rectal bleeding)” value was “very significant anti-inflammatory activity”. Also, where the note is “Prednisolone 1 mg/kg p.o. twice daily, Day 6 as printed, P < 0.01 vs. vehicle”, the “Disease Activity Index (DAI)” value is 7 ± 0.33. For the same compound, under setting [1], the “histological injury induced by DSS in the distal colon” value is recorded as “significantly reduced” and the “histological injury induced by DSS in the proximal colon” value was “significantly reduced”. For the same compound, under “prednisolone 1 mg/kg p.o. twice daily (group B), from day 2 until the end of the study”, the body weight entry is given as “significant decrease”. Moreover, the “inhibition of the disease activity index (DAI)” value (reference item prednisolone 1 mg/kg p.o. twice daily) was “significant inhibition”.

Regarding “Human beta defensin 2 (GIGDPVTCLKSGAICHPVFCPRRYKQIGTCGLPGTKCCKKP; ends and bridges not checked; cysteine pairing not given here; listed as Homo sapiens) [hBD2, human beta defensin 2 (hBD2]”, the “additional DAI score without the change in body weight (only stool consistency and rectal bleeding)” value is “very significant anti-inflammatory activity”. The “Disease Activity Index (DAI)” value (hBD2 0.05 mg/kg p.o., Day 6, max score 12, P < 0.01 vs. vehicle) is reported as 1.2 ± 0.59. For the same compound, the “Disease Activity Index (DAI)” value (hBD2 0.05 mg/kg p.o., Day 7, P < 0.05 vs. vehicle) is reported as 1.9 ± 0.66. Also, the “Disease Activity Index (DAI)” value (hBD2 0.05 mg/kg p.o., Day 8, P < 0.001 vs. vehicle) worked out at 4.5 ± 0.86. Moreover, the “Disease Activity Index (DAI)” value (hBD2 0.05 mg/kg p.o., Day 9, P < 0.001 vs. vehicle) was determined as 5.6 ± 0.54. The “Disease Activity Index (DAI)” value (hBD2 0.05 mg/kg p.o., Day 10, P < 0.05 vs. vehicle) is given as 8 ± 0.73. Further, for the setting “hBD2 0.5 mg/kg p.o., Day 6, P < 0.05 vs. vehicle”, the “Disease Activity Index (DAI)” value is listed as 1.7 ± 0.67. The “Disease Activity Index (DAI)” value (hBD2 0.5 mg/kg p.o., Day 9, P < 0.05 vs. vehicle) turned out to be 7.1 ± 0.61. Under “hBD2 0.5 mg/kg p.o., Day 10, P < 0.01 vs. vehicle”, the “Disease Activity Index (DAI)” value was determined as 7.3 ± 0.7. For the same compound, the “Disease Activity Index (DAI)” value (hBD2 5 mg/kg p.o., Day 3, P < 0.05 vs. vehicle) is 0.5 ± 0.27. Moreover, the “Disease Activity Index (DAI)” value (hBD2 5 mg/kg p.o., Day 4, P < 0.05 vs. vehicle) is recorded as 0.6 ± 0.27. Besides, the “Disease Activity Index (DAI)” value (hBD2 5 mg/kg p.o., Day 5, P < 0.05 vs. vehicle) is 1.8 ± 0.76. In addition, the “Disease Activity Index (DAI)” value (hBD2 5 mg/kg p.o., Day 6, P < 0.05 vs. vehicle) is listed as 1.4 ± 0.6. For the same compound, the “Disease Activity Index (DAI)” value (hBD2 5 mg/kg p.o., Day 7, P < 0.05 vs. vehicle) is on record as 2.1 ± 0.96. Further, the “Disease Activity Index (DAI)” value (hBD2 5 mg/kg p.o., Day 8, P < 0.01 vs. vehicle) is 5.4 ± 0.87. Moreover, where the note is “hBD2 5 mg/kg p.o., Day 9, P < 0.001 vs. vehicle”, the “Disease Activity Index (DAI)” value came to 5.2 ± 0.76. For the same compound, the “Disease Activity Index (DAI)” value (hBD2 5 mg/kg p.o., Day 10, P < 0.001 vs. vehicle) amounted to 5.6 ± 0.48. Also, the “inhibition of the disease activity index (DAI)” value (hBD2 at three dose levels (0.05, 0.5, 5 mg/kg) via the oral route) is reported as “significant inhibition”. In addition, the “histological damage in the proximal colon” value (hBD2 twice daily, at 3 dose levels, p.o., day 10) is recorded as “significant reduction”. Besides, under “hBD2 twice daily, at the intermediate and high dose levels, p.o., day 10”, the “histological damage in the distal colon” value was “significant reduction”. Moreover, the “body weight compared to the control group” value (high dose of the test item (5 mg/kg p.o.), day 10, P<0.05) is “significant increase”.
